Measurements reported in patent CN109021104A (SHANGHAI CHEMPARTNER CO LTD; GATEWAY BIOTECHNOLOGY SHANGHAI …, dated 2018).

Biological target: T1, 人源PDGFRβ全长 (human PDGFRβ, full length, on cells) (human, UniProt P09619 33-1106)
T1 construct: whole, on cells; also called HEK293-hPDGFRβ稳定细胞株; 细胞表面的PDGFRβ
Test: flow cytometry on HEK293-hPDGFRβ cells, Alexa488 secondary antibody

T1 sequence (P09619 33-1106): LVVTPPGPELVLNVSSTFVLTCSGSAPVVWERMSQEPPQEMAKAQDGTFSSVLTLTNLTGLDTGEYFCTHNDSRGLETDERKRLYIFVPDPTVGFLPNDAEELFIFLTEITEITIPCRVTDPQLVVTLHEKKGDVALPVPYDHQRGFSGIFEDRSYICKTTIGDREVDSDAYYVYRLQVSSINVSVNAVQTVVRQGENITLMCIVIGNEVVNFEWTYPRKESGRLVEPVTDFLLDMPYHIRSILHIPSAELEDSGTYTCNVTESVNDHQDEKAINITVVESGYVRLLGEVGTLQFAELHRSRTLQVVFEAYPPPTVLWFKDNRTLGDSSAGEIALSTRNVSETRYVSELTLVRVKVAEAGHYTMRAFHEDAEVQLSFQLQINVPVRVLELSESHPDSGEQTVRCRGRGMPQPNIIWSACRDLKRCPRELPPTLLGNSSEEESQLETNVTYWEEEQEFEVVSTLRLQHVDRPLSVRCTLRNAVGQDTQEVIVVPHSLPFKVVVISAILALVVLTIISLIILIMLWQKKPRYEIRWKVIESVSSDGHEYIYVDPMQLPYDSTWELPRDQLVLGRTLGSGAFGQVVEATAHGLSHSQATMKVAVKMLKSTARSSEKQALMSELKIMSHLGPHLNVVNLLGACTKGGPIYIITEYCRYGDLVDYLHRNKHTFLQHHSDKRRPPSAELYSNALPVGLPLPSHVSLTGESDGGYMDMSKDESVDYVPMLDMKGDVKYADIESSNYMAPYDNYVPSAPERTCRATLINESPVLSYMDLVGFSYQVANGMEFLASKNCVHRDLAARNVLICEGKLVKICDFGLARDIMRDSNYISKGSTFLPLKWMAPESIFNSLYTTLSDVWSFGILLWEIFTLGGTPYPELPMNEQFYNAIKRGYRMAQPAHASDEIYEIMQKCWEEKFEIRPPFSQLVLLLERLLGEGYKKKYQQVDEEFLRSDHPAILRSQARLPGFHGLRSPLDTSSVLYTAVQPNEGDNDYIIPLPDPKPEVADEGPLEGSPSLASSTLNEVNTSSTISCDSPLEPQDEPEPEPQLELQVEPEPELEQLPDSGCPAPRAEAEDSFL

B1: 39E10E12B3 (antibody, V domains shown)
VH: EVQLVESGGGVVQPGRSLRLSCAASGFTFSSYGMHWVRQAPGKGLEWVAVIWYDGSNKYYADSVKGRFTISRDNSKNTLYLQMNSLRAEDTAVYYCAVTGDVDYWGQGTLVTVSS
notes: Heavy-chain-only monoclonal antibody (no light chain), purified from a hybridoma made from HCAb transgenic mice; also called 重链抗体39E10E12B3; PDGFRβ抗体
- binding result: binds
